In the data set the target is Cre recombinase (Bacteriophage P1?, UniProt P06956 P06956:1-343). The experiment in a line: in vitro loxP x loxP plasmid co-integration, 50 mM Tris pH 7.5, 10 mM MgCl2, 30 mM NaCl, 37 C 45 min; read out by product vector rescue in E. coli (1.2x10^4 and 8.2x10^5 colonies per ug second vector). Conditions: tags: Stratagene; chain copies: 4. How it is done: To rescue the product vector from the co-integrate vector, chemically competent XL1-blue or XL10 gold (kanR) (both strains from Stratagene, LaJolla, Calif.) were transformed with the above recombination reaction. Either strain has high transformation efficiencies and carries the F′ plasmid required to render the host infectable by filamentous phages such as f1. Transformation was performed by mixing 2.5 μl of the recombination reaction with 100 μl of competent cells, incubation on ice for 20 minutes and subsequent hear shock at 42° C. for 45 seconds. After the heat shock, 1 ml of 1×NZY, 10 μl of Exassist helper phage (10⁸ pfu; Stratagene, LaJolla, Calif.) and 100 μl of a fresh stationary culture of XLOLR-S^R were added and incubated for 2 hours at 37° C. while shaking. The XLOLR-S^R strain serves as the secondary host. The secondary host can be selected for with Streptomycin. Exassist is used as a helper phage allowing packaging of the rescued single-stranded product vector. […]
Plasmid DNA of 18 blue colonies were analyzed by restriction digestion. […] All white colonies analyzed by restriction digestion were indistinguishable from the second vector and presumably resulted form mutations in the rpsL insert serving as the negative selectable marker. […]

Cre recombinase, sequence (P06956 whole entry, one chain of several): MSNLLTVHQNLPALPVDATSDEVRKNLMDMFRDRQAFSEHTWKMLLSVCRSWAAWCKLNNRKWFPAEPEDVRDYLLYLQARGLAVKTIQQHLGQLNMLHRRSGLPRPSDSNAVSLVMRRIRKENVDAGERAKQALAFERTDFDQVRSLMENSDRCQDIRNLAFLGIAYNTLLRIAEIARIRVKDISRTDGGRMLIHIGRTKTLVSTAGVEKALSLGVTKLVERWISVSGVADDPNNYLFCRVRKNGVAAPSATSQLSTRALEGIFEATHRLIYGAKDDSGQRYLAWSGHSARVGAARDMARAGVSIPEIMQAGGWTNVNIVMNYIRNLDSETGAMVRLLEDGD

B1: loxP site (wild type) in first and second vectors (dsDNA)
DNA 1: CGAATTGGAGCTATAACTTCGTATAATGTATGCTATACGAAGTTATCATATGGCGGTGGCGGCCGCTCTAGAAC
DNA 2: GTTCTAGAGCGGCCGCCACCGCCATATGATAACTTCGTATAGCATACATTATACGAAGTTATAGCTCCAATTCG
Consider B1, for which the binding result is “binds”.

(Values after patent publication US20040180443, “Methods for transfer of DNA segments” (Stratagene, published 2004).)
